Measurements published in patent publication US20130280318A1, “Tissue Scaffolds for Controlled Release of Active Agents” (The Trustees of Columbia University in the City of New York, priority 2010, published 2013).

Test system: Chondrocytes
Test: Chondrocyte growth on scaffolds (total DNA, Picogreen)
Type: cell-based, bovine
Conditions: TGF-β3 released from tissue scaffold
Method: Chondrocytes enzymatically digested from bovine calves (6×10^4 cells/cm^2) were cultured on scaffolds in serum-free ITS+ media. Experimental group included PLGA-TGFβ3 scaffolds, while cells cultured on PLGA and on PLGA with exogenous TGF-β3 (1 ng/mL) served as controls. Viability was evaluated with confocal microscopy (n=3).
Total DNA (n=6) was quantified by Picogreen Assay. Glycosaminoglycan (GAG) and collagen syntheses (n=6) were assessed by dimethylmethylene blue (DMMB) and Sircol assays, respectively. Gene expressions (Col I, II, and X) were analyzed by RT-PCR (n=4).

B1: transforming growth factor-beta 3 (protein, UniProt P10600 301-412, looked up)
Transforming growth factor …: ALDTNYCFRNLEENCCVRPLYIDFRQDLGWKWVHEPKGYYANFCSGPCPYLRSADTTHSTVLGLYNTLNPEASASPCCVPQDLEPLTILYYVGRTPKVEQLSNMVVKSCKCS
modifications: Transforming growth factor beta-3
With B1 the “bioactivity of released TGF-β3 (chondrocyte proliferation and biosynthesis)” value was “bioactive”.
